Experiment: soluble on expression in E. coli; label from the status in PepcDB or PDB records

Sequence	soluble on expression in E. coli
MYILVTTGSMGFKRLFDAIVKSVIGKRIVIQTGKIDPTIYRNQNVTTFSFDPDLEKWIANASLVITHQGKTAMEAVVMYRKPVIMVYNNDWKSATTLSDAKKYAEILGATFLSDPITWSDYNVLLEAIENANEPNVFDTGTPNLVKHVLSEL	soluble
GMKQPNYYQDVKQFHQTFHHPGADQPTAIPLDRGVKRATWTAEEAVVEFLHQSSQNETEFLAAIETFKAGLDQAVKKSLKETYPVTEVERLVGQGDALTDALYFIMGSFVEAGLEPGPLFEIVQQANMAKLGPDGQPIFRESDQKVMKPDGWLPPEPQLEAEVVRQMKEKA	soluble
MAALIDTGIFFGFYSLKDVHHMDSVAIVVHAVEGKWGRLFVTNHILDETLTLLKYKKLPADKFLEGFVESGVLNIIYTDDEVERKALEVFKARVYEKGFSYTDAISEVVAEELKLKLISYDSRFSLPTIGRDYWKSLDESERKRISAILREKGIDG	soluble
KGGVWRNTEDEILKAAVMKYGKNQWSRIASLLHRKSAKQCKARWYEWLDPSIKKTEW	soluble
FPSGSAQLSARLYLPAGTPQVAVVINGATGVPREYYQHFATWLAAERGIACLTYDYRDFGHSLRGPLAASTATMSDWALIDMPAAYAEMQRRYPDLPLWVIGHSVGGMLGPLQPGIEPIARMICVCSGLVHHSDHPWPYQALARLFWFGHAPLLVKTLGYLPGRRIGFGSDLPPGVYWEWRRWCTTPGAYLPEMGDRLPQADWSRSGAPVDMFAFEDDTTIPPNCVWRLADVYGETVRRHLLHPRAFGLREIGHLGAFARRNAALWPRLIA	not soluble
MLYKSSLAVAISALIAGQVSAAGFQVAEHSASGLGRAFSGEAAVADNASVLARNPAAMMLFETAQFSGALSIVDPEVNVDDLSNNQSMKDVAPLQIVPAAYYIRPINDQWAWGLAMFTTYGVATDYPNEIYAGDLAGDTSLISVNLNPNIAYRVNPELSLGFGLDLVAAKAKLTRHKGGLAPFMGGGNPSDNLIGMTGETLALGWNIGALYELDEQNRIGFGYRSRVKLNFDDGEFSSYDSGIATSAVVPGQLKIELPAIWELSGFHQLNEQWAVHYSYQQTDWSSFEELTATSSQCKNGTCFQKIEQYQDNGRWSVGATYTLNTTWTLRAGLAFDEQAGKATLSIPDSDRFWYSAGLTYTLTPQLTMDAGFALVQSRKGSFTEKNQIGQNLQFESEAVAYISALQFNYRFH	not soluble
MNEFKYNIGYALSGGFIKGFAHLGIMQALHEHGIRPEILSGVSAGALAAVFYADGKEPYHIVELFEHHSFKELTTFSINKQGLLKLDSFIDFLNSNLESKTIEELKIPTIITATDLDHGRIVSFKKGKIAERLAASCCMPILFAPIRINNTYYVDGGILMNLPVSPIRKECEKVIALNVDPLVADEYSKNVVSIALRAYHFIFQANTLPQKGIADLLIESYGLEEYSNRELERAEEIFEKGYNTATELLDRLLLENGTIWR	not soluble
MGSDKIHHHHHHVLNFDYDLQSVQETRNLARQAKQAQTELAQFNSEQIDKIIRNMVKVAEENAVALAKLAVEETGFGKVEDKVFKNRFASTELYQFIKPMQTIGVIKEDKINKVMEIAEPVGLLMGIVPSTNPTSTTIYKSLIAIKARNGIVFSPHPSALKCTLEAAKLMNDAAVAAGAPANIIGCISKPSMNATNELMKCDEVAMIIATGGSAMVKAAYSAGKPALGVGPGNVPAYIERTADIPKAVRNIIASKTFDNGTICASEQSVVVEECIRNQVMEEFKRQGGYFMTPEETEQVGRKLFNRGHAMNAKMVGRSAADIAAGAGISIPPGTKVLLGEQQGVGEQYPLSYEKLTTVLAFYTVKDWHEACDLCMKLLNNGGVGHSLSIHTENPEMAIKFAEKPVFRILVNTASTHGGVGVSTGLAPAFTLGCGTWGGSATSDNVTPMHLINIKRVAYGIKDVTENGNSSYATGDAQQGGSGGTVSEDRIQALVNEVMSLLKQRGDC	not soluble
MGEEEESLAILRRHVMNELLDTERAYVEELLCVLEGYAAEMDNPLMAHLISTGLQNKKNILFGNMEEIYHFHNRIFLRELESCIDCPELVGRCFLERMEEFQIYEKYCQNKPRSESLWRQCSDCPFFQECQKKLDHKLSLDSYLLKPVQRITKYQLLLKEMLKYSKHCEGAEDLQEALSSILGILKAVNDSMHLIAITGYDGNLGDLGKLLMQGSFSVWTDHKKGHTKVKELARFKPMQRHLFLHEKAVLFCKKREENGEGYEKAPSYSYKQSLNMTAVGITENVKGDTKKFEIWYNAREEVYIIQAPTPEIKAAWVNAIRKVLTSQLQACREASQHRALEQSHSLEHHHHHH	soluble
MSLLAQLDQKIAANGGLIVSCQPVPDSPLDKPEIVAAMALAAEQAGAVAIRIEGVANLQATRAVVSVPIIGIVKRDLEDSPVRITAYIEDVDALAQAGADIIAIDGTDRPRPVPVETLLARIHHHGLLAMTDCSTPEDGLACQKLGAEIIGTTLSGYTTPETPEEPDLALVKTLSEAGCRVIAEGRYNTPAQAADAMRHGAWAVTVGSAITRLEHICQWYNTAMKKAVL	not soluble
MAHHHHHHMGCSGSKNASNPKDGAASKGGKDGKTTADRKVAWERIRCAIPRDKDAESKSRRIELFKRFDTNGTGKLGFREVLDGCYSVLKLDEFTTHLPDIVQRAFDKAKDLGNKVKGVGEEDLVEFLEFRLMLCYIYDIFELTVMFDTMDKDGSLLIELQEFKEALPKLKEWGVDITDATTVFNEIDTNGSGVVTFDEFSCWAVTKKLQVCGDPDGEGNGANEGDGANAGDGVPAAEGSA	soluble
MQHLEAVRNILGDVLNLGERKHTLTASSVLLGNIPELDSMAVVNVITALEEYFDFSVDDDEISAQTFETLGSLALFVEHKLSH	soluble
HMFPARWHNYLQCGQVIKDSNLICFKTPLRPELFAYVTSEEDVWTAEQIVKQNPSIGAIIDLTNTSKYYDGVHFLRAGLLYKKIQVPGQTLPPESIVQEFIDTVKEFTEKCPGMLVGVHCTHGINRTGYMVCRYLMHTLGIAPQEAIDRFEKARGHKIERQNYVQDLLI	soluble
MSLTQIFAHRGSKVDCPENTLAAFKKAIQVGCDGIEIDVHRTKDNQLVVIHDEAVDRTSNGSGLVRQLTLKQIRMLDAGSWFHPAYFCEKIPTLEEVLNFLEESGFQGTLNLEIKTNRYPYPKIEKQIAQTMQAKKRSFSHIYSSFNLFSLYVMRKHDPKAELAYLMKFHPFHFWLAQQLKFIKTVHSHSSFYENQVTKRKNKKPFRLWTVNNDDDMKKFFLSGIEGIITDKPEEAVKLRKSLQTKEGHHHHHH	not soluble
MSLSCLFLQSAGEMLQNCAQSNCRIIPKKLRDMKREEICRLLADKVNKLKNKENSLSELLPDVRLLYGETPFARTPVMYEPGIIILFSGHKIGYINERVFRYDANEYLLLTVPLPFECETYATSEVPLAGLRLNVDILQLQELLMDIGEDEHFQPSMAASGINSATLSEEILCAAERLLDVMERPLDARILGKQIIREILYYVLTGPCGGALLALVSRQTHFSLISRVLKRIENKYTENLSVEQLAAEANMSVSAFHHNFKSVTSTSPLQYLKNYRLHKARMMIIHDGMKASAAAMRVGYESASQFSREFKRYFGVTPGEDAARMRAMQGNEGHHHHHH	soluble
MSTQKRAIAKTDMLKFTETSQPIGQKKYVELSKDIFIFSYLCGGINFTDIANLTQENIVNGRLHYIRQKTGKLIKIGIPQEAMQIIKKYTDESNGYLFPILNVKVHKTALQKQNRIHKIRGKVNDILKTLGKRLGIEANITTYVARHSFASVLKKSGVNIALISEALGHSDLATTQIYLDSFDNEQVDEAMKNLLEHHHHHH	not soluble
MSLTDKMQSLALAPVGNLDSYIRAANAWPMLSADEERALAEKLHYHGDLEAAKTLILSHLRFVVHIARNYAGYGLPQADLIQEGNIGLMKAVRRFNPEVGVRLVSFAVHWIKAEIHEYVLRNWRIVKVATTKAQRKLFFNLRKTKQRLGWFNQDEVEMVARELGVTSKDVREMESRMAAQDMTFDLSSDDDSDSQPMAPVLYLQDKSSNFADGIEDDNWEEQAANRLTDAMHGLDERSQDIIRARWLDEDNKSTLQELADRYGVSAERVRQLEKNAMKKLRAAIEAEGHHHHHH	soluble
MANSFTFWNDCVEPEDLEEMWMDPAVSAEWIDVGETKGQKVHLSRDPDGQPYLTQTEMRAVSDITVRRHFDSILDSEMICAIAELESDRKPLIMRYSKKTKETGLGILQVFEKTAAWLAGGQGYQAYNVDDNPDLLHKPFINVYFGAAYLKWLTDYQNNQRSEEFVVRAYNGGTKKATHKSTLPYWKRYLAVKESLPSRKHGDAGPSSFRPTNPASPGSNTDFTYWDSRASPEDMEDMWNQSEICKEWTKSKEERGKVRFSQDGEKRPYLSRGELKAVAEIIVSKYFSTKGIRVPLVCAIADTVCMRFVNGIKKHVGILGVDYSTASWLYSELGYRAYRVDSADDLTKPFISMYFGVAYLVWLSEYEGSQRSNQFIVQAYMKGPDHVDLEESCPLWLKFEQALSYYEESKRDSGSCVIL	not soluble
MARTEKKKDVVIVGLGWTGAIAGMELAAEGLEIVALERGRDQNTVPEFKYPNQIDELTYGVRLVNMQHPSQQTVTVRRNDAETALPYRSMGSFLPANGVGGAGTHWNGLLWRPQPQEIQLRSYVKERWGESIIPEGMNLMDYPVTYDELEPFFTRFDEVAGISGKAGNLKGKIQPGGNPFEGWRSSEYPMPPMPPTYDATKFRDAAQAMGYHPFPAPAGVASTAYVNPYGMQMAPCNFCGFCERFGCYQYSKSSPQTAILDALKRKPNFSYRTHAEVLRIESSADGKTATGVTYFDAAAQEEVFQPADLVILAAYQLNNVHLLLLSGIGEPYDPATNTGVTGKNYAYQMNGGVTMFFKDANFNPFIGHGSNGFCIDDFSVNQNDFGALGFIGGAYWRSGTFNGQPIRSMILPAGTPGWGAGWKKAIGQWYGHSMSIGTHGSHMAYRANHLDLDPTYKDPHGRPLMRMTFNWQDNDLRMNQYMKLKAGEVGKAMKPDLMQLGFKGPGAMYDVRPYQTTHNTGGHIMSRDPREGVVNRYCQAWDKHNVFVMGAGNFVQNTQYNPTGMVGALAYWTIHAIRTQYLRDPRPLVLEHHHHHH	not soluble
STSPTATKYDVFLSFRGVDTRRNFISFLYKEFVRRKIRTFKDDKELENGRRISPELKRAIEESKFAVVVVSVNYAASPWCLDELVKIMDFENKGSITVMPIFYGVDPCHLRRQIGDVAEQFKKHEAREEDHEKVASWRRALTSLASISGDCSSKCEDEAKLVDEIADKISKNLMTVTTISNGKNLVGIDTHMKALNKKLDLNSNKSLRVVGIWARGYNGRSALAKYVYQDICHHFDSHCFLGSVKRISQGRHLSHLHEEFLIRIQGSKHNLKDQKVLLVADDVYKLEQLDALAEDFNGFGPGSVVIITTQDKHLFVSAGIKLVYEVELLKFQKVCELFRQFAFKKRDISAAVKLVYYRATNWLGCLSGRSG	soluble
VYAILISDIHVGSKEFCENAFIKFLEWLNGNVETKEEEEIVSRVKYLIIAGDVVDGVGVYPGQYADLTIPDIFDQYEALANLLSHVPKHITMFIAPGNHDAARQAIPQPEFYKEYAKPIYKLKNAVIISNPAVIRLHGRDFLIAHGRGIEDVVGSVPGLTHHKPGLPMVELLKMRHVAPMFGGKVPIAPDPEDLLVIEEVPDVVHMGHVHVYDAVVYRGVQLVNSATWQAQTEFQKMVNIVPTPAKVPVVDIDTAKVVKVLDFSGWC	not soluble
